One molecule from paper PMC6474823 (Molecular cell, 2019) can be followed below.

Experiment [1] addresses Src^CD WT (catalytic domain of Src, residues 261-536) (human, UniProt P12931 261-536). In words: pull-down.
Experiment [2] deals with Src^FL WT (full-length Src, residues 1-536, non-phosphorylated, lacking an N-terminal myristoyl group) (human, UniProt P12931 1-536). Kind of experiment: pull-down.

In the case of MGSNKSKPKDASQRRRSLLPETG (domain or fragment, human) [SH4^SNAP WT (residues 1-18 of Src fused to the N-terminus of SNAP-tag through a LPETG linker)], the binding result in experiment [1] and in experiment [2] was “binds” throughout.
